Assay results: patent publication US20260242852

Target: AsCas12a (Acidaminococcus sp.?) (UniProt U2UMQ6)
Assay: BLI
Details: ΨDNA guide binding without target; NEB 2.1, 0.05% Triton X

Work on “AGCACCCAGTCCGCCCTGAGTAGATGTGAATCATCTTTAAT [AsCas12a GFP ΨDNA 3'-biotin]” yielded a Kd of 24.5 nM.
